*1 amine or outer side, *2 acyl side, *3 side chain or, on linkers, in order; H or OH if unused. Bridges are numbered along the chain shown (N, C = ends). Where no end group is shown, it is not given here. Side-chain parts run from the residue outwards. The star is where a group is joined. X2 = (S)‑4‑Carboxy‑4‑(19-carboxynonadecanoylamino)butyryl, O=C(O)CCCCCCCCCCCCCCCCCCC(=O)N[C@@H](CCC(=O)*)C(=O)O; C20 diacid = O=C(O)CCCCCCCCCCCCCCCCCCC(=O)*; C18 diacid = O=C(O)CCCCCCCCCCCCCCCCC(=O)*; γGlu = O=C(O)[C@H](CCC(=O)[*:2])N[*:1]; AEEA = NCCOCCOCC(=O)O
T1: Amylin 3(a) receptor (human calcitonin receptor (CTa) with RAMP-3) (human, UniProt P30988 25-474; O60896 24-148, limits assumed)
T1 sequence (looked up) 1: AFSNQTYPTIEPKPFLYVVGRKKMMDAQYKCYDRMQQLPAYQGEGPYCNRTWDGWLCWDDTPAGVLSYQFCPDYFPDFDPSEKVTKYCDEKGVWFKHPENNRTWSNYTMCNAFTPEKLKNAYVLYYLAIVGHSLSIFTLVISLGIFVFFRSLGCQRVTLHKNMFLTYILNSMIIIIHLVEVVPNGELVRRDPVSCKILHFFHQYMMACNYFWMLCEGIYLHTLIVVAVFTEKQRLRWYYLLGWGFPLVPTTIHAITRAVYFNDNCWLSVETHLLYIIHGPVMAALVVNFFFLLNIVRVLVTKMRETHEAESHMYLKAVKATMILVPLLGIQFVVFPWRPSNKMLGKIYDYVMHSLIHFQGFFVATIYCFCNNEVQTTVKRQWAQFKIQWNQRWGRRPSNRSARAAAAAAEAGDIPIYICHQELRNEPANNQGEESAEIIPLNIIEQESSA
T1 sequence (looked up) 2: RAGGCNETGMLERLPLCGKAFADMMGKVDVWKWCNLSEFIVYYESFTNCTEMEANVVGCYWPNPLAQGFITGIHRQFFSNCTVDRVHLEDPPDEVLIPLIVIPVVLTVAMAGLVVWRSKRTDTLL


biological target: T1, Amylin 3(a) receptor (human calcitonin …); experiment: cell-based or functional assay

| Binder | Potency Luciferase [nM] |
| --- | --- |
| HHHCNTATCATQRLANFLHHSSNNFGPILPPTNVGSNTY-NH2 (disulfide 4-9; not fully specified (N-terminus); printed as N-alpha-[(S)-4-Carboxy-4-(19-carboxynonadecanoylamino)butyryl]-His-His-[His1,His17]-pramlintide) [N-alpha-[(S)-4-Carboxy-4-(19-carboxynonadecanoylamino)butyryl]-His-His-[His1,His17]-pramlintide] | 0.06 |
| HRKCNTATCATQRLANFLHHSSNNFGPILPPTNVGSNTY-NH2 (disulfide 4-9; not fully specified (N-terminus); printed as N-alpha-[(S)-4-Carboxy-4-(19-carboxynonadecanoylamino)butyryl]-His-Arg-[His17]-pramlintide) [N-alpha-[(S)-4-Carboxy-4-(19-carboxynonadecanoylamino)butyryl]-His-Arg-[His17]-pramlintide] | 0.1 |
| {C20 diacid-γGlu}-CNTATCATQRLANFLHHSSNNFEPILPPTNVGSNTY-NH2 (disulfide 1-6; SMILES CC[C@H](C)[C@H](NC(=O)[C@@H]1CCCN1C(=O)[C@H](CCC(=O)O)NC(=O)[C@H](Cc1ccccc1)NC(=O)[C@H](CC(N)=O)NC(=O)[C@H](CC(N)=O)NC(=O)[C@H](CO)NC(=O)[C@H](CO)NC(=O)[C@H](Cc1c[nH]cn1)NC(=O)[C@H](Cc1c[nH]cn1)NC(=O)[C@H](CC(C)C)NC(=O)[C@H](Cc1ccccc1)NC(=O)[C@H](CC(N)=O)NC(=O)[C@H](C)NC(=O)[C@H](CC(C)C)NC(=O)[C@H](CCCNC(=N)N)NC(=O)[C@H](CCC(N)=O)NC(=O)[C@@H](NC(=O)[C@H](C)NC(=O)[C@@H]1CSSC[C@H](NC(=O)CC[C@H](NC(=O)CCCCCCCCCCCCCCCCCCC(=O)O)C(=O)O)C(=O)N[C@@H](CC(N)=O)C(=O)N[C@@H]([C@@H](C)O)C(=O)N[C@@H](C)C(=O)N[C@@H]([C@@H](C)O)C(=O)N1)[C@@H](C)O)C(=O)N[C@@H](CC(C)C)C(=O)N1CCC[C@H]1C(=O)N1CCC[C@H]1C(=O)N[C@H](C(=O)N[C@@H](CC(N)=O)C(=O)N[C@H](C(=O)NCC(=O)N[C@@H](CO)C(=O)N[C@@H](CC(N)=O)C(=O)N[C@H](C(=O)N[C@@H](Cc1ccc(O)cc1)C(N)=O)[C@@H](C)O)C(C)C)[C@@H](C)O) [N-alpha-[(S)-4-Carboxy-4-(19-carboxynonadecanoylamino)butyryl]-[His17,Glu24]-pramlintide (2-37)] | 0.1 |
| {C18 diacid-γGlu-AEEA-AEEA}-RCNTATCATQRLANFLHHSSNNFGPILPPTNVGSNTY-NH2 (disulfide 2-7; SMILES CC[C@H](C)[C@H](NC(=O)[C@@H]1CCCN1C(=O)CNC(=O)[C@H](Cc1ccccc1)NC(=O)[C@H](CC(N)=O)NC(=O)[C@H](CC(N)=O)NC(=O)[C@H](CO)NC(=O)[C@H](CO)NC(=O)[C@H](Cc1c[nH]cn1)NC(=O)[C@H](Cc1c[nH]cn1)NC(=O)[C@H](CC(C)C)NC(=O)[C@H](Cc1ccccc1)NC(=O)[C@H](CC(N)=O)NC(=O)[C@H](C)NC(=O)[C@H](CC(C)C)NC(=O)[C@H](CCCNC(=N)N)NC(=O)[C@H](CCC(N)=O)NC(=O)[C@@H](NC(=O)[C@H](C)NC(=O)[C@@H]1CSSC[C@H](NC(=O)[C@H](CCCNC(=N)N)NC(=O)COCCOCCNC(=O)COCCOCCNC(=O)CC[C@H](NC(=O)CCCCCCCCCCCCCCCCC(=O)O)C(=O)O)C(=O)N[C@@H](CC(N)=O)C(=O)N[C@@H]([C@@H](C)O)C(=O)N[C@@H](C)C(=O)N[C@@H]([C@@H](C)O)C(=O)N1)[C@@H](C)O)C(=O)N[C@@H](CC(C)C)C(=O)N1CCC[C@H]1C(=O)N1CCC[C@H]1C(=O)N[C@H](C(=O)N[C@@H](CC(N)=O)C(=O)N[C@H](C(=O)NCC(=O)N[C@@H](CO)C(=O)N[C@@H](CC(N)=O)C(=O)N[C@H](C(=O)N[C@@H](Cc1ccc(O)cc1)C(N)=O)[C@@H](C)O)C(C)C)[C@@H](C)O) | 0.03 |
| KCK([Glu-Glu-Glu-Glu-C20 diacid])TATCATQRLANFLHHSSDNFGPILPPTNVGSNTY-NH2 (disulfide 2-7) [N-epsilon3-(19-carboxynonadecanoyl-Glu-Glu-Glu-Glu)-[Lys3,His17,Asp21]-pramlintide] | 2 |

Second part, the binder after the results:

| Potency Luciferase [nM] | Binder |
| --- | --- |
| 0.1 | X2-ERECNTATCATQRLANFLHHSSQNFGAPLSSTNVGSNTY-NH2 (disulfide 4-9; SMILES CC(C)C[C@H](NC(=O)[C@H](CCCNC(=N)N)NC(=O)[C@H](CCC(N)=O)NC(=O)[C@@H](NC(=O)[C@H](C)NC(=O)[C@@H]1CSSC[C@H](NC(=O)[C@H](CCC(=O)O)NC(=O)[C@H](CCCNC(=N)N)NC(=O)[C@H](CCC(=O)O)NC(=O)CC[C@H](NC(=O)CCCCCCCCCCCCCCCCCCC(=O)O)C(=O)O)C(=O)N[C@@H](CC(N)=O)C(=O)N[C@@H]([C@@H](C)O)C(=O)N[C@@H](C)C(=O)N[C@@H]([C@@H](C)O)C(=O)N1)[C@@H](C)O)C(=O)N[C@@H](C)C(=O)N[C@@H](CC(N)=O)C(=O)N[C@@H](Cc1ccccc1)C(=O)N[C@@H](CC(C)C)C(=O)N[C@@H](Cc1c[nH]cn1)C(=O)N[C@@H](Cc1c[nH]cn1)C(=O)N[C@@H](CO)C(=O)N[C@@H](CO)C(=O)N[C@@H](CCC(N)=O)C(=O)N[C@@H](CC(N)=O)C(=O)N[C@@H](Cc1ccccc1)C(=O)NCC(=O)N[C@@H](C)C(=O)N1CCC[C@H]1C(=O)N[C@@H](CC(C)C)C(=O)N[C@@H](CO)C(=O)N[C@@H](CO)C(=O)N[C@H](C(=O)N[C@@H](CC(N)=O)C(=O)N[C@H](C(=O)NCC(=O)N[C@@H](CO)C(=O)N[C@@H](CC(N)=O)C(=O)N[C@H](C(=O)N[C@@H](Cc1ccc(O)cc1)C(N)=O)[C@@H](C)O)C(C)C)[C@@H](C)O) |
| 0.1 | {C20 diacid-γGlu}-CNTATCATQRLADFLHHSSNNFGPILPPTNVGSNTY-NH2 (disulfide 1-6; SMILES CC[C@H](C)[C@H](NC(=O)[C@@H]1CCCN1C(=O)CNC(=O)[C@H](Cc1ccccc1)NC(=O)[C@H](CC(N)=O)NC(=O)[C@H](CC(N)=O)NC(=O)[C@H](CO)NC(=O)[C@H](CO)NC(=O)[C@H](Cc1c[nH]cn1)NC(=O)[C@H](Cc1c[nH]cn1)NC(=O)[C@H](CC(C)C)NC(=O)[C@H](Cc1ccccc1)NC(=O)[C@H](CC(=O)O)NC(=O)[C@H](C)NC(=O)[C@H](CC(C)C)NC(=O)[C@H](CCCNC(=N)N)NC(=O)[C@H](CCC(N)=O)NC(=O)[C@@H](NC(=O)[C@H](C)NC(=O)[C@@H]1CSSC[C@H](NC(=O)CC[C@H](NC(=O)CCCCCCCCCCCCCCCCCCC(=O)O)C(=O)O)C(=O)N[C@@H](CC(N)=O)C(=O)N[C@@H]([C@@H](C)O)C(=O)N[C@@H](C)C(=O)N[C@@H]([C@@H](C)O)C(=O)N1)[C@@H](C)O)C(=O)N[C@@H](CC(C)C)C(=O)N1CCC[C@H]1C(=O)N1CCC[C@H]1C(=O)N[C@H](C(=O)N[C@@H](CC(N)=O)C(=O)N[C@H](C(=O)NCC(=O)N[C@@H](CO)C(=O)N[C@@H](CC(N)=O)C(=O)N[C@H](C(=O)N[C@@H](Cc1ccc(O)cc1)C(N)=O)[C@@H](C)O)C(C)C)[C@@H](C)O) [N-alpha-[(S)-4-Carboxy-4-(19-carboxynonadecanoylamino)butyryl]-[Asp14,His17]-pramlintide (2-37)] |
| 0.6 | X2-ERECNTATCATQRLADFLHHSSNNFGAPLSSTNVGSNTY-NH2 (disulfide 4-9; SMILES CC(C)C[C@H](NC(=O)[C@H](CCCNC(=N)N)NC(=O)[C@H](CCC(N)=O)NC(=O)[C@@H](NC(=O)[C@H](C)NC(=O)[C@@H]1CSSC[C@H](NC(=O)[C@H](CCC(=O)O)NC(=O)[C@H](CCCNC(=N)N)NC(=O)[C@H](CCC(=O)O)NC(=O)CC[C@H](NC(=O)CCCCCCCCCCCCCCCCCCC(=O)O)C(=O)O)C(=O)N[C@@H](CC(N)=O)C(=O)N[C@@H]([C@@H](C)O)C(=O)N[C@@H](C)C(=O)N[C@@H]([C@@H](C)O)C(=O)N1)[C@@H](C)O)C(=O)N[C@@H](C)C(=O)N[C@@H](CC(=O)O)C(=O)N[C@@H](Cc1ccccc1)C(=O)N[C@@H](CC(C)C)C(=O)N[C@@H](Cc1c[nH]cn1)C(=O)N[C@@H](Cc1c[nH]cn1)C(=O)N[C@@H](CO)C(=O)N[C@@H](CO)C(=O)N[C@@H](CC(N)=O)C(=O)N[C@@H](CC(N)=O)C(=O)N[C@@H](Cc1ccccc1)C(=O)NCC(=O)N[C@@H](C)C(=O)N1CCC[C@H]1C(=O)N[C@@H](CC(C)C)C(=O)N[C@@H](CO)C(=O)N[C@@H](CO)C(=O)N[C@H](C(=O)N[C@@H](CC(N)=O)C(=O)N[C@H](C(=O)NCC(=O)N[C@@H](CO)C(=O)N[C@@H](CC(N)=O)C(=O)N[C@H](C(=O)N[C@@H](Cc1ccc(O)cc1)C(N)=O)[C@@H](C)O)C(C)C)[C@@H](C)O) |
